Experimental findings from the supplement of paper PMC10724198 are described below.

± gives the standard deviation of the averaged measurements.
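Also: PSI is a weighted mean of sequencing reads over stability bins, variants kept only with over 10 reads, mCherry proximal and sfGFP distal, peptide attached via GGGS linker.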

For this series, the system named is Saccharomyces cerevisiae. The series is described as follows: protein stability index of tFT-peptide fusion (C-terminal peptide) (PSI (0-1 scale)); higher = more stable (slower turnover). The conditions noted are these: genetic background: wild type; temperature: 30 C.
Sequence SRFQFCCCLFFF showed a protein stability index of 0.578 ± 0.0074.

SRGAFGPCEFFL: the protein stability index came out at 0.712 ± 0.0076.

For SRGGGRSEGGEG, the protein stability index is 0.695 ± 0.033.

SRGGSGKDTGRT registered a protein stability index of 0.657 ± 0.04.

Consider SRGLVVYMDALR, for which the protein stability index worked out at 0.692 ± 0.028.

SRGMRNPLSADR had a protein stability index of 0.645 ± 0.098.

In the case of SRGRTRLVAPIV, the protein stability index amounted to 0.66 ± 0.14.

Consider SRHIFAPFGLFG, for which the protein stability index was determined as 0.726 ± 0.056.

The sequence SRHVAGVGGGEV returned a protein stability index of 0.652 ± 0.019.

Take SRKIAPNGTATL: the protein stability index worked out at 0.706 ± 0.012.

In turn, SRKTDTRLTMIN showed a protein stability index of 0.692 ± 0.032.

The sequence SRLMGLGLLCVG registered a protein stability index of 0.5272 ± 0.0013.

SRPPILAHPTPS registered a protein stability index of 0.707 ± 0.049.

Take SRPPRSPPLPPV: the protein stability index was determined as 0.686 ± 0.046.

Regarding SRPPSPPLCHPA, the protein stability index came out at 0.736 ± 0.054.

SRPRPPHTLLRP yielded a protein stability index of 0.688 ± 0.065.

SRPRTTRKAASS returned a protein stability index of 0.674 ± 0.012.

Sequence SRRDRGHWSVRS had a protein stability index of 0.6198 ± 0.0039.

SRRETKTRLAPN showed a protein stability index of 0.656 ± 0.14.

Take SRRGIRSSSAAR: the protein stability index was 0.714 ± 0.065.

On to SRRRIENNKTEN, for which the protein stability index is 0.695 ± 0.015.

Regarding SRRVVDVGVIRV, the protein stability index worked out at 0.635 ± 0.02.

In the case of SRSLHGTEEYRE, the protein stability index stood at 0.644 ± 0.099.

SRSPPRSGVPPL: the protein stability index is 0.716 ± 0.032.

Turning to SRTDGLIYTALI, the protein stability index was determined as 0.676 ± 0.021.

SRTVSLDYHFMS displayed a protein stability index of 0.7319 ± 0.00097.

Take SRTYAHSPPLPA: the protein stability index was 0.699 ± 0.027.

SRVVCVGGRLFG: the protein stability index worked out at 0.702 ± 0.045.

In the case of SRYRSTSESMKV, the protein stability index was determined as 0.667 ± 0.038.

Consider SRYSAVSVSRWH, for which the protein stability index amounted to 0.696 ± 0.041.

SSALVLSGPPHS showed a protein stability index of 0.782 ± 0.1.

Take SSAPCLRIFVTR: the protein stability index amounted to 0.737 ± 0.062.

Consider SSCRKFLFAIRR, for which the protein stability index is 0.685 ± 0.02.

The sequence SSGASRWSRSKF yielded a protein stability index of 0.762 ± 0.074.

SSGVIIGRIAVK displayed a protein stability index of 0.603 ± 0.033.

SSIEAGFSSIVI yielded a protein stability index of 0.685 ± 0.04.

SSIGPTECSYFS registered a protein stability index of 0.678 ± 0.088.

For SSLLPSPPPPLP, the protein stability index is 0.677 ± 0.028.

In turn, SSLPPPAPSFVP displayed a protein stability index of 0.646 ± 0.1.

SSLTPRVSFIIF displayed a protein stability index of 0.64 ± 0.12.

For the sequence SSMCYARIIWWG, the protein stability index is 0.596 ± 0.039.

Sequence SSPAGSRLPFGS registered a protein stability index of 0.75 ± 0.11.

SSPCFGKLRHFL returned a protein stability index of 0.686 ± 0.035.

SSPFSLPSPPLS showed a protein stability index of 0.676 ± 0.071.

For SSPHRPTPSWPP, the protein stability index worked out at 0.564 ± 0.0069.

In the case of SSPLPPAPPTAS, the protein stability index was 0.587 ± 0.1.

Turning to SSPLPPPSRAAC, the protein stability index stood at 0.762 ± 0.011.

In turn, SSPPFPPSPPLP yielded a protein stability index of 0.695 ± 0.012.

Regarding SSPPPPPPPLPL, the protein stability index came to 0.705 ± 0.023.

On to SSPPSPSPPPPT, for which the protein stability index was found to be 0.678 ± 0.038.

SSPPTPPFPPPP displayed a protein stability index of 0.7044 ± 0.00099.

In turn, SSPRPPPPRFSP returned a protein stability index of 0.687 ± 0.039.

In turn, SSPSPPRPPAPF yielded a protein stability index of 0.704 ± 0.091.

Sequence SSPSPPSPPLPP came in with a protein stability index of 0.735 ± 0.0095.

Sequence SSRFNVAPGGCR registered a protein stability index of 0.745 ± 0.11.

On to SSRGSSSPPPHF, for which the protein stability index was determined as 0.709 ± 0.074.

For SSSHIRTDLSHF, the protein stability index is 0.6852 ± 0.0065.

Take SSSPLLDPPLPH: the protein stability index came out at 0.68 ± 0.017.

Sequence SSSPSPRPPRPP showed a protein stability index of 0.679 ± 0.0097.

Consider SSSVQSIPLPSA, for which the protein stability index was 0.71 ± 0.043.

The sequence SSTDLLDLALLV yielded a protein stability index of 0.718 ± 0.094.

SSWGARSGRRPS: the protein stability index is 0.6989 ± 0.0045.

On to STAKTARRKREK, for which the protein stability index came out at 0.671 ± 0.0094.

Take STFGVMVTHEMN: the protein stability index is 0.727 ± 0.021.
